# Measured values from IntAct's records for PubMed 20865002.
# B1: Serine/threonine-protein kinase RAD53 (Saccharomyces cerevisiae), P22216 (parent)
# chain: MENITQPTQQSTQATQRFLIEKFSQEQIGENIVCRVICTTGQIPIRDLSADISQVLKEKRSIKKVWTFGRNPACDYHLGNISRLSNKHFQILLGEDGNLLLNDISTNGTWLNGQKVEKNSNQLLSQGDEITVGVGVESDILSLVIFINDKFKQCLEQNKVDRIRSNLKNTSKIASPGLTSSTASSMVANKTGIFKDFSIIDEVVGQGAFATVKKAIERTTGKTFAVKIISKRKVIGNMDGVTRELEVLQKLNHPRIVRLKGFYEDTESYYMVMEFVSGGDLMDFVAAHGAVGEDAGREISRQILTAIKYIHSMGISHRDLKPDNILIEQDDPVLVKITDFGLAKVQGNGSFMKTFCGTLAYVAPEVIRGKDTSVSPDEYEERNEYSSLVDMWSMGCLVYVILTGHLPFSGSTQDQLYKQIGRGSYHEGPLKDFRISEEARDFIDSLLQVDPNNRSTAAKALNHPWIKMSPLGSQSYGDFSQISLSQSLSQQKLLENMDDAQYEFVKAQRKLQMEQQLQEQDQEDQDGKIQGFKIPAHAPIRYTQPKSIEAETREQKLLHSNNTENVKSSKKKGNGRFLTLKPLPDSIIQESLEIQQGVNPFFIGRSEDCNCKIEDNRLSRVHCFIFKKRHAVGKSMYESPAQGLDDIWYCHTGTNVSYLNNNRMIQGTKFLLQDGDEIKIIWDKNNKFVIGFKVEINDTTGLFNEGLGMLQEQRVVLKQTAEEKDLVKKLTQMMAAQRANQPSASSSSMSAKKPPVSDTNNNGNNSVLNDLVESPINANTGNILKRIHSVSLSQSQIDPSKKVKRAKLDQTSKGPENLQFS
# partner: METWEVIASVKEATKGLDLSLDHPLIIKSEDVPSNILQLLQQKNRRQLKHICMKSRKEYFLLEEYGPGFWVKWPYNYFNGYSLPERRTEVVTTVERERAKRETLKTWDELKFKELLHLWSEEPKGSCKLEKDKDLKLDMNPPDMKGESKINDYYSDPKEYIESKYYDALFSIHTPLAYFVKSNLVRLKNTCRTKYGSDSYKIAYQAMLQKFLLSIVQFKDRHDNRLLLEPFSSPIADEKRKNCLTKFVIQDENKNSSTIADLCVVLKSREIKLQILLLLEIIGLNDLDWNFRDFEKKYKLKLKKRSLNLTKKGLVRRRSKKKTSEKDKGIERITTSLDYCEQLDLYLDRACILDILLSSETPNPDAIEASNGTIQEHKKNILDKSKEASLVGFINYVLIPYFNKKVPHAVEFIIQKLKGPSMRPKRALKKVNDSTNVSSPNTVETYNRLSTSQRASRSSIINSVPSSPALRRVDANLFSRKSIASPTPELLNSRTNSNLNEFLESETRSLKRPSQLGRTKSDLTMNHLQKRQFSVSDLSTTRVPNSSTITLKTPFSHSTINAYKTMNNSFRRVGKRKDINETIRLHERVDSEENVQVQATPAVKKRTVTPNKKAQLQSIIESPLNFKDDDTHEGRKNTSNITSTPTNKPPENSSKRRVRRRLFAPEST
# Variants of: B1
# Details: with sld3_yeast SLD3, P53135
row,Variant,effect of a mutation on the interaction
1,K227A,disrupting interaction
